Assay results as given in patent US8748176B2, “Generation of choroid plexus epithelial cells from human embryonic stem cells” (The Regents of the University of California, priority 2011, dated 2014).

B1: BMP4: Bone Morphogenetic Protein 4 (GeneID: 652), recombinant, commercially available (R&D Systems) (protein, UniProt P12644 293-408, looked up)
Bone morphogenetic protein 4: SPKHHSQRARKKNKNCRRHSLYVDFSDVGWNDWIVAPPGYQAFYCHGDCPFPLADHLNSTNHAIVQTLVNSVNSSIPKACCVPTELSAISMLYLDEYDKVVLKNYQEMVVEGCGCR

Legend:
primary CPEC vesicles = assay: CPEC vesicle secretion assay with secretion inhibitors, primary CPECs; type: cell-based, mouse; conditions: 100 uM acetazolamide and 5 mM ouabain together, 24 hrs; regrew upon withdrawal
Text: (§1) To assess functional activity, we adopted a well-established in vitro assay for CPEC vesicle formation and secretion (33, 34). As described previously using this assay, primary dissociated CPECs on Matrigel self-assembled into hollow vesicles that grew in diameter, collapsed after treatment with the secretion inhibitors acetazolamide and ouabain, and regrew upon inhibitor withdrawal (FIG. 5A-G). Indistinguishable vesicles formed from dissociated SFEBq aggregates treated with BMP4 (n=6/6 independent cultures), but not from controls (n=0/6; FIGS. 5H,I). Like the primary CPEC vesicles, the SFEBq-derived vesicles were Aqp1 positive (FIG. 5I, inset), grew (FIGS. 5J,K), collapsed after exposure to the secretion inhibitors (FIG. 5L), and recovered after inhibitor removal (FIG. 5M).
(§2) Primary CP cells or SFEBq-derived cells were cultured on Matrigel as previously described (33, 34). Briefly, Matrigel (BD Biosciences, San Jose, Calif.) was mixed 1:1 with DMEM (Invitrogen) and incubated for at least 30 min at 37 C. BMP4-treated SFEBq aggregates at 12 DIV were dissociated with TrypLE Express (Invitrogen) and plated at 500,000 to 600,000 cells/well onto Matrigel-coated 6-well plates in DMEM with 10% FBS, 2 mM L-glutamine, NEAA, and sodium pyruvate (Invitrogen). […]

SFEBq-derived vesicles = assay: CPEC vesicle secretion assay with secretion inhibitors, mESC-derived vesicles; type: cell-based, mouse; conditions: 100 uM acetazolamide and 5 mM ouabain together, 24 hrs; recovered after removal
Text: as §1, §2

mESC-derived NECs = assay: BMP4 treatment of mESC-derived SFEBq aggregates, CPEC/NEC marker RT-qPCR; type: cell-based, mouse
Experimental: Significant and similar levels of CPEC gene induction were also seen with one-time BMP4 addition alone (data not shown). These findings indicate a relatively short and early critical period in culture for BMP4-mediated CPEC marker induction, which occurs at the expense of NEC markers.
(§3) These were performed as described (21, 26) on a StepOne Plus (Applied Biosystems, Carlsbad, Calif.) using 18S normalization and Excel for graphing and statistics (two-tailed t-tests assuming equal variance). All primers and amplicons were validated as described (21, 26). All studies represent n>2 biological replicates per condition, unless otherwise specified.
Neural differentiation was adapted from Eiraku et al. (29). Briefly, mESCs were passaged for two hours onto gelatin-coated plates to reduce MEF load, dissociated to single cells using trypsin, then plated at varying concentrations onto ultra-low attachment U-bottom 96-well plates (Corning #7007, Lowell, Mass.) to form SFEBq aggregates. Differentiation media (29) was replaced initially, then every other day, with fresh media containing 0.5 to 50 ng/ml BMP4 (R&D Systems). Neural rosette (NR) cultures were based on the Elkabetz et al. method (30). […] For the combined SFEBq/NR method, we first generated SFEBq aggregates for 5 DIV, then transferred aggregates into adherent mNR conditions for another 2 DIV (7 DIV total).

[1] = test system: mESC-derived NECs plated as adherent monolayers; assay: combined aggregation-monolayer system, CPEC markers by RT-qPCR and immunocytochemistry; type: cell-based, mouse
Experimental: In addition to direct BMP4 applications to SFEBq aggregates, we also dissociated SFEBq aggregates into single cells after 5DIV (i.e. after they had differentiated into NECs), plated them as adherent monolayers onto PDL-laminin-coated plates at 300,000-600,000 cells, then added BMP4 (0.5-50 ng/ml BMP4) for another 5 days (10DIV total). This combined aggregation-monolayer system allows all NECs to experience the same BMP4 concentration in culture. […] The optimal concentration of BMP4 is probably between 0.5 ng/ml-50 ng/ml BMP4 in this system.
as §3

[2] = test system: dissociated SFEBq aggregates; assay: in vitro assay for CPEC vesicle formation on Matrigel; type: cell-based, mouse; conditions: SFEBq aggregates treated with 50 ng/ml BMP4; controls n=0/6
Text: as §1, §2

H1-derived NRs = assay: BMP4 addition to hESC-derived neural rosettes (NR method); type: cell-based, human; conditions: BMP4 0.5-15 ng/ml, evident by 7 DIV after addition
Text: We then attempted to derive iCPECs from human ESCs using an analogous approach. To first generate NECs, we used the Zhang et al. method (35) to generate neural rosettes (NRs) (FIGS. 6A,B) with predominant forebrain character (30). […] Eventually, the hESC-derived vesicles transformed into flat epithelial sheets (FIG. 6D), and occasional multivesicular bodies also formed (FIG. 6E). […] H9 cultures yielded similar morphologic changes, although NR-to-vesicle transformations were less prominent.
1) Neural rosette (NR) method. Neural induction with NR formation was adapted from Zhang et al. (35). Human ESC colonies were partially dissociated with 1 mg/ml dispase, then plated in suspension to form embryoid bodies (EBs) for 3 DIV. EBs were then transferred to suspension culture with neural induction media—DMEM/F12 (Invitrogen), N2 (Invitrogen), NEAA, heparin (2 ug/ml) and FGF2 (20 ng/ml)—for another two days. On 6 DIV, EBs were transferred to adherent PDL/laminin-coated plates with neural induction media, which was fully replaced every other day. On 16 DIV, media was fully replaced with neural induction media containing BMP4 (0.5-15 ng/ml), with full media replacement every other day. […] The SFEBq media was changed every 3 days, with or without fresh BMP4, and the culture was analyzed after 1-2 weeks of BMP4 incubation, with greater CPEC differentiation detected at 2 weeks.

H9 hESC SFEBq aggregates = assay: BMP4 applied to H9 hESC SFEBq aggregates, CPEC marker expression; type: cell-based, human; conditions: BMP4 0-15 ng/ml, 18 to 24-DIV aggregates
Experimental: We also generated human CPECs by applying the SFEBq neural induction method to human ESCs (H9 line). H9 hESCs were optimized for aggregate size and assessed for NEC gene expression over time. 9000-cell SFEBq aggregates were optimal, and NEC expression plateaued by 18-24 DIV. BMP4 (0-15 ng/ml) was applied to 12-, 15-, 18-, 21-, and 24-DIV aggregates. […] Based on RT-qPCR studies, peak expression of NEC markers, but not radial glial markers, coincided with the 21 DIV aggregates.
1) Neural rosette (NR) method. Neural induction with NR formation was adapted from Zhang et al. (35). Human ESC colonies were partially dissociated with 1 mg/ml dispase, then plated in suspension to form embryoid bodies (EBs) for 3 DIV. EBs were then transferred to suspension culture with neural induction media—DMEM/F12 (Invitrogen), N2 (Invitrogen), NEAA, heparin (2 ug/ml) and FGF2 (20 ng/ml)—for another two days. On 6 DIV, EBs were transferred to adherent PDL/laminin-coated plates with neural induction media, which was fully replaced every other day. On 16 DIV, media was fully replaced with neural induction media containing BMP4 (0.5-15 ng/ml), with full media replacement every other day. 2) Aggregate (SFEBq) method. […] The SFEBq media was changed every 3 days, with or without fresh BMP4, and the culture was analyzed after 1-2 weeks of BMP4 incubation, with greater CPEC differentiation detected at 2 weeks.

Molecule	vesicle response to secretion inhibitors (primary CPEC vesicles)	vesicle response to secretion inhibitors (SFEBq-derived vesicles)	CPEC markers Ttr, Lmx1a, and Msx1 induction (mESC-derived NECs; 5-day aggregates, BMP4 5 or 50 ng/ml for 7 DIV)	CPEC markers Aqp1 and Cldn1 induction (mESC-derived NECs; 5-day aggregates, BMP4 concentration-dependent)	NEC markers Sox1 and Foxg1 expression (mESC-derived NECs; with increasing BMP4 concentration)	CPEC markers by RT-qPCR at 50 ng/ml ([1]; 50 ng/ml BMP4)	optimal BMP4 concentration for CPEC marker upregulation ([1]; 0.5-50 ng/ml BMP4 for 5 days, 10DIV total) [ng/mL]	independent cultures forming vesicles on Matrigel [2]	morphologic transformation of neural rosettes (H1-derived NRs)	CPEC markers Ttr, Otx2, and Lmx1a expression (H9 hESC SFEBq aggregates)
CC(=O)Nc1nnc(S(N)(=O)=O)s1 [acetazolamide]	collapsed	collapsed								
C[C@@H]1O[C@@H](O[C@H]2C[C@@H](O)[C@]3(CO)[C@H]4[C@H](O)C[C@]5(C)[C@@H](C6=CC(=O)OC6)CC[C@]5(O)[C@@H]4CC[C@]3(O)C2)[C@H](O)[C@H](O)[C@H]1O [ouabain]	collapsed	collapsed								
B1			markedly induced	strongly induced	downregulated	down-regulation of CPEC markers	5	6/6	transformed directly into expanding vesicular structures	upregulated
